Data as given in paper PMC7603442, “Tracking a TGF-β activator in vivo: sensitive PET imaging of αvβ8-integrin with the Ga-68-labeled cyclic RGD octapeptide trimer Ga-68-Triveoctin” (EJNMMI Research, 2020).
Like-named read-outs stand apart in the source and are kept apart here. Values belong to the compound of their own block, whether it stands above or below them. Starred links: 1 amine or outer side, 2 acyl side, 3 side chain; linkers in the order of their positions; H or OH if unused. Positions of bridges follow the written chain, without caps; N, C: chain ends. Non-standard residues stand in square brackets, D forms with d. Residues, ends and D or L forms follow the SMILES beside them. Chains are numbered I, II in the order given. *: point of attachment. X1 = O=C(CCP(=O)(O)CN1CCN(CP(=O)(O)CCC(=O)NCCCn2cc(CCC(=O)[*:2])nn2)CCN(CP(=O)(O)CCC(=O)NCCCn2cc(CCC(=O)[*:3])nn2)CC1)NCCCn1cc(CCC(=O)[*:1])nn1; X2 = O=C(O)CCP(=O)(O)CN1CCN(CP(=O)(O)CCC(=O)O)CCN(CP(=O)(O)CCC(=O)NCCCn2cc(CCC(=O)*)nn2)CC1; NMeK = CN[C@@H](CCCCN)C(=O)O; Pent4ynoyl = C#CCCC(=O)*

Columns and labels:
αvβ8-integrin = αvβ8-integrin (Homo sapiens, UniProt P06756+P26012); test: solid-phase binding assay, αvβ8-integrin affinity
Method: (§1) Synthesis and characterization of Triveoctin is described in the Additional file 1. The integrin affinities were determined by a solid-phase binding assay, applying a previously described protocol. β8 immunohistochemistry stainings were done as described. All animal studies have been performed in accordance with general animal welfare regulations in Germany and the institutional guidelines for the care and use of animals. ^68Ga radiolabeling, cultivation of MeWo cells and generation of respective subcutaneous xenografts, determination of n-octanol/phosphate-buffered saline (PBS) distribution coefficients (log D) and ex-vivo biodistribution studies, and µPET imaging were done as described previously in detail (a brief summary is provided in the following).

[1] = test system: MeWo (human melanoma) xenografted SCID mice; set-up: method as in PMID 23283986; settings: cited from earlier work
in vivo = test: in vivo; set-up: species or system mice; settings: female, CB17 SCID, mouse; for tissue uptake at 1 h: 43 pmol
Method: as §1
(§2) MeWo cells (ATCC®, HTB-65™) were grown at 37 °C under 5% CO2 atmosphere in DMEM/HAM (Biochrom, Berlin, Germany) with 10% fetal calf serum (Thermo Fisher). Approx. 10^7 cells were subcutaneously injected with Matrigel® (Corning, #354262) into the right shoulder of 6–8-week-old female CB17 severe combined immunodeficiency (SCID) mice, which were used about 2–3 weeks later for PET and biodistribution.
(§3) Fig. 3 Biodistribution of ^68Ga-Triveoctin, 60 min p.i. (43 ± 13 pmol, n = 6; blockade with 60 nmol Triveoctin injected 5 min prior to the radiopharmaceutical, n = 4) in MeWo-xenografted SCID mice, uptakes expressed as % injected dose per gram tissue; mean ± SD. Data for ^68Ga-TRAP-AvB8 (control: 77 ± 24 pmol, n = 11; blockade: n = 3) were taken from the literature and are shown for comparison. Data in numerical form are given in the Additional file 1: Table S1

[2] = test system: MeWo (human melanoma) xenografted SCID mice; test: in vivo; settings: mouse
Method: as §1, §2, §3

clinical = settings: human, in vivo
Method: Using a fully automated synthesis module, the eluate of a ^68Ge/^68Ga generator (by Eckert & Ziegler, Berlin, Germany; 0.1 M HCl, approx. 500 MBq ^68Ga) was directly eluted into the reaction vial containing Triveoctin (35 µg) and adjusted to pH 4.5 with sodium acetate. After heating for 4 min at 95 °C, the mixture was passed over a solid-phase extraction cartridge (Waters Sep-Pak®light tC-18), which was purged with water (10 mL). Thereafter, ^68Ga-Triveoctin was eluted with ethanol/water mixture (1:1 by volume, 1 mL), followed by isotonic saline (9 mL). The formulation containing approx. 5% ethanol was passed through a 0.22-µm filter into a sterile injection vial and dispensed for injection. Quality control was done by radio-HPLC using a Shimadzu system equipped with a column Chromolith® Performance RP18e (Phenomenex, Aschaffenburg, Germany), gradient 0–100% acetonitrile in water within 15 min, flow rate 1.4 mL/min, tR = 8.53 min, and met the in-house specifications for ^68Ga-labeled compounds (> 95%).
(§4) Application of ^68Ga-Triveoctin was done according to §13/2b of the German Drug Act (Arzneimittelgesetz). A human subject received a single intravenous injection of ^68Ga-Triveoctin (173 MBq, approx. 25 µg; for radiolabeling and QC, see Additional file 1). […] 25 min p.i., the patient underwent a list-mode PET/CT imaging protocol on a Biograph Vision 600 (Siemens Healthineers, Knoxville, USA). A standard low-dose CT was acquired from the whole body (X-ray tube current 10 mA, tube voltage 100 kV, spiral pitch factor 1.5, 3.0 mm slice thickness) and used for absolute scatter correction of the subsequent PET scan. The emission PET scan was acquired over 19 min using continuous bed motion with a speed of 2.2 mm s^–1 for the legs and 1.4 mm s^–1 for the remaining body. The PET scan was repeated 45 min p.i. without another CT scan. Another PET/CT imaging sequence was acquired 90 min p.i. as the subject had to leave the scanner for voiding. All scans were obtained during normal breathing. PET images were reconstructed using the TRueX algorithm with 4 iterations, 5 subsets, time-of-flight (TOF) application and without filtering. […] The dosimetry values were calculated using OLINDA V1.1 [24] on the basis of the human PET data.

[3] = set-up: species or system human; settings: in vivo
Method: as §4
Assuming that an activity of 100 MBq ^68Ga-Triveoctin is sufficient for a PET scan at 30–60 min p.i., up to 6 investigations could be performed without exceeding the 20 mSv limit.

[4] = non-radioactive 69/71Ga(III) complexes where applicable, read-out: αvβ8-Integrin affinity IC50 (95% confidence interval)
[5] = female, CB17 SCID, 43 pmol, 1 h

Sequence of αvβ8-integrin (P06756 31-992 limits assumed): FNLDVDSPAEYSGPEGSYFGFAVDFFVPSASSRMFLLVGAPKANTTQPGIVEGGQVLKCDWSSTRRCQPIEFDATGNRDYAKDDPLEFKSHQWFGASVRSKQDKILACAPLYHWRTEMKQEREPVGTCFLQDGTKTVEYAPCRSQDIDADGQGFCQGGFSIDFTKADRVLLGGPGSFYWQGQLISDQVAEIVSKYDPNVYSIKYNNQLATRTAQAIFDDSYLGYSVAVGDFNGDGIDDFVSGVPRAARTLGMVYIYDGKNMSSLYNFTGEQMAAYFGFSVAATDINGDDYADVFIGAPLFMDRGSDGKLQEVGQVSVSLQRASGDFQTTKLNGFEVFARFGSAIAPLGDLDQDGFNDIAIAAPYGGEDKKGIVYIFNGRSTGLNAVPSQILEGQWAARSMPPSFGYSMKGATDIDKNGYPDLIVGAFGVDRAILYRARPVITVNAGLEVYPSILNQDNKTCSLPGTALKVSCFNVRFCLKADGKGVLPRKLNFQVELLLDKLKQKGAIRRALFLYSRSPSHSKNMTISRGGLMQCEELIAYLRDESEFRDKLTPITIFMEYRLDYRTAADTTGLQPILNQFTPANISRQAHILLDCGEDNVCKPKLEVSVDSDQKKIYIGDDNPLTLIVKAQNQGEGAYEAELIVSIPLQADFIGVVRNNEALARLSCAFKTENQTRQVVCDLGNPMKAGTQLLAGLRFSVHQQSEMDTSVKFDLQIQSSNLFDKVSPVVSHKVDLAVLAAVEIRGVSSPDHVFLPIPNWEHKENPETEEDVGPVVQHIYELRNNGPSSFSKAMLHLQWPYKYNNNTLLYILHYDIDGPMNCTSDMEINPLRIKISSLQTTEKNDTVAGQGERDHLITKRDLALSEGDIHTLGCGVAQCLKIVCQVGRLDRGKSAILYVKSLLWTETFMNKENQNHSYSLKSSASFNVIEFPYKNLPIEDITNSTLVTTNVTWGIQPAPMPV
Sequence of αvβ8-integrin (P26012 43-684 limits assumed): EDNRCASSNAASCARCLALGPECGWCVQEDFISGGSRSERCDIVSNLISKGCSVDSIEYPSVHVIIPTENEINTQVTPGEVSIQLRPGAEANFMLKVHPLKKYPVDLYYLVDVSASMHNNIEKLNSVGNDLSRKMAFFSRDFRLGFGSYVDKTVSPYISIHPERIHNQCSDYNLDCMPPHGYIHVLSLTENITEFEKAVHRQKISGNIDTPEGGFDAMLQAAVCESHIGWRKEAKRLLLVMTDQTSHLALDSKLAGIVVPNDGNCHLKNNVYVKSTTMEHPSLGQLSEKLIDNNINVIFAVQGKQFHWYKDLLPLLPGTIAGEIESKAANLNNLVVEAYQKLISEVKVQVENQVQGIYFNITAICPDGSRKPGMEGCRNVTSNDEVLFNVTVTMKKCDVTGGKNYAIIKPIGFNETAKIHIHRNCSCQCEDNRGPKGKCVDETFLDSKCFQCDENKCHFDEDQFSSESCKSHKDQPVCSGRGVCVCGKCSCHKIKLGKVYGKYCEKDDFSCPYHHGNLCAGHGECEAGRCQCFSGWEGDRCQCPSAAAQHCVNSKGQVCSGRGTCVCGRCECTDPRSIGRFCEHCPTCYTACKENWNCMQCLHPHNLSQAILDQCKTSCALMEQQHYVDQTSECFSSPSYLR

SMILES: CC(C)C[C@@H]1NC(=O)CNC(=O)[C@H](CCCCNC(=O)CCc2cn(CCCNC(=O)CCP(=O)(O)CN3CCN(CP(=O)(O)CCC(=O)O)CCN(CP(=O)(O)CCC(=O)O)CC3)nn2)N(C)C(=O)[C@H]2CCCN2C(=O)[C@H](CC(C)C)NC(=O)[C@H](CC(=O)O)NC(=O)CNC(=O)[C@H](CCCNC(=N)N)NC1=O [^68Ga-TRAP-AvB8, metal not drawn] (cyclo(GLRGDL[dP][NMeK](X2)))
IC50 (αvβ8-integrin): 0.038 µM
kidney uptake ([1]; 60 min p.i., average): 3.6 %IA/g
tumor uptake upon blockade ([1]; blockade n = 3): 0.25 %IA/g
tumor uptake ([1]; control n = 11): 1.0 %IA/g

IC50 (αvβ8-integrin; [4]): 0.017 µM
SMILES: C#CCCC(=O)NCCCC[C@H]1C(=O)NCC(=O)N[C@@H](CC(C)C)C(=O)N[C@@H](CCCNC(=N)N)C(=O)NCC(=O)N[C@@H](CC(=O)O)C(=O)N[C@@H](CC(C)C)C(=O)N2CCC[C@@H]2C(=O)N1C [AvB8-pentynoic amide, cyclo(GLRGDLp(NMe)K(pent-4-ynoic amide))] (cyclo(GLRGDL[dP][NMeK](Pent4ynoyl)))

IC50 (αvβ8-integrin; [4]): 0.0057 µM
SMILES: CC(C)C[C@@H]1NC(=O)CNC(=O)[C@H](CCCCNC(=O)CCc2cn(CCCNC(=O)CCP(=O)(O)CN3CCN(CP(=O)(O)CCC(=O)NCCCn4cc(CCC(=O)NCCCC[C@H]5C(=O)NCC(=O)N[C@@H](CC(C)C)C(=O)N[C@@H](CCCNC(=N)N)C(=O)NCC(=O)N[C@@H](CC(=O)O)C(=O)N[C@@H](CC(C)C)C(=O)N6CCC[C@@H]6C(=O)N5C)nn4)CCN(CP(=O)(O)CCC(=O)NCCCn4cc(CCC(=O)NCCCC[C@H]5C(=O)NCC(=O)N[C@@H](CC(C)C)C(=O)N[C@@H](CCCNC(=N)N)C(=O)NCC(=O)N[C@@H](CC(=O)O)C(=O)N[C@@H](CC(C)C)C(=O)N6CCC[C@@H]6C(=O)N5C)nn4)CC3)nn2)N(C)C(=O)[C@H]2CCCN2C(=O)[C@H](CC(C)C)NC(=O)[C@H](CC(=O)O)NC(=O)CNC(=O)[C@H](CCCNC(=N)N)NC1=O [^68Ga-Triveoctin, metal not drawn] (I: cyclo(RGDL[dP][NMeK]GL) / II: cyclo(RGDL[dP][NMeK]GL) / III: cyclo(RGDL[dP][NMeK]GL); linker I:6-II:6-III:6 via X1)
tissue uptake at 1 h (in vivo; Adrenals uptake): 0.39 ± 0.23 %ID/g
tissue uptake at 1 h (in vivo; Blood uptake): 0.28 ± 0.06 %ID/g
tissue uptake at 1 h (in vivo; Eye uptake): 1.95 ± 0.44 %ID/g
tissue uptake at 1 h (in vivo; Heart (myocard) uptake): 0.16 ± 0.04 %ID/g
tissue uptake at 1 h (in vivo; Kidneys uptake): 35.3 ± 6.3 %ID/g
tissue uptake at 1 h (in vivo; Large intestine (empty) uptake): 0.17 ± 0.03 %ID/g
tissue uptake at 1 h (in vivo; Liver uptake): 0.28 ± 0.06 %ID/g
tissue uptake at 1 h (in vivo; Lung uptake): 0.68 ± 0.19 %ID/g
tissue uptake at 1 h (in vivo; Muscle uptake): 0.07 ± 0.01 %ID/g
tissue uptake at 1 h (in vivo; Pancreas uptake): 0.12 ± 0.02 %ID/g
tissue uptake at 1 h (in vivo; Small intestine (empty) uptake): 0.18 ± 0.09 %ID/g
tissue uptake at 1 h (in vivo; Spleen uptake): 0.23 ± 0.03 %ID/g
tissue uptake at 1 h (in vivo; Stomach (empty) uptake): 0.22 ± 0.07 %ID/g
tissue uptake at 1 h (in vivo; Tumor MeWo uptake): 1.86 ± 0.31 %ID/g
tissue to tissue ratio at 1 h (in vivo; total radioactivity, kidney-to-blood ratio): 126
tissue to tissue ratio at 1 h (in vivo; total radioactivity, kidney-to-muscle ratio): 505
tissue to tissue ratio at 1 h (in vivo; tumor/blood ratio): 6.7 ± 0.7
tissue to tissue ratio at 1 h (in vivo; tumor/heart (myocard) ratio): 11.7 ± 1.7
tissue to tissue ratio at 1 h (in vivo; tumor/kidneys ratio): 0.1
tissue to tissue ratio at 1 h (in vivo; tumor/liver ratio): 6.8 ± 1.4
tissue to tissue ratio at 1 h (in vivo; tumor/lung ratio): 2.8 ± 0.7
tissue to tissue ratio at 1 h (in vivo; tumor/muscle ratio): 29 ± 6
tissue to tissue ratio at 1 h (in vivo; tumor/pancreas ratio): 15.7 ± 3.5
tissue to tissue ratio at 1 h (in vivo; tumor/spleen ratio): 7.9 ± 1.5
tissue to tissue ratio at 1 h (in vivo; tumor/stomach (empty) ratio): 8.8 ± 2.2
Kidneys uptake [2, 5]: 35 %IA/g
Tumor MeWo uptake [2, 5]: 1.9 %IA/g
tumor/adrenals ratio [2]: 5.7 ± 2.3
tumor/blood ratio [2]: 6.7
tumor/eye ratio [2]: 1.0 ± 0.2
tumor/large intestine (empty) ratio [2]: 11.0 ± 1.6
tumor/liver ratio [2]: 6.8
tumor/muscle ratio [2]: 29
tumor/small intestine (empty) ratio [2]: 11.6 ± 3.9
half-life (clinical): 1.8 h
kidney-to-blood ratio (clinical): approx. 15
kidney-to-muscle ratio (clinical): ~30
SUV at 1.5 h (clinical; iv, 173 MBq, total radioactivity): 6.1 SUV
tissue to tissue ratio at 1.5 h (clinical; iv, 173 MBq, total radioactivity, kidney-to-blood ratio): 15
tissue to tissue ratio at 1.5 h (clinical; iv, 173 MBq, total radioactivity, kidney-to-blood ratio, times lower in human than in mice): 8
tissue to tissue ratio at 1.5 h (clinical; iv, 173 MBq, total radioactivity, kidney-to-muscle ratio): 30
tissue to tissue ratio at 1.5 h (clinical; iv, 173 MBq, total radioactivity, kidney-to-muscle ratio, times lower in human than in mice): 16
Dose estimate, Adrenals [3]: 2.69E−02 mGy/MBq
Dose estimate, Brain [3]: 5.23E−03 mGy/MBq
Dose estimate, Breasts [3]: 5.46E−03 mGy/MBq
Dose estimate, Gallbladder wall [3]: 1.00E−02 mGy/MBq
Dose estimate, Heart wall [3]: 1.52E−02 mGy/MBq
Dose estimate, Kidneys [3]: 2.60E−01 mGy/MBq
Dose estimate, LLI wall [3]: 2.08E−02 mGy/MBq
Dose estimate, Liver [3]: 2.43E−02 mGy/MBq
Dose estimate, Lungs [3]: 7.83E−03 mGy/MBq
Dose estimate, Muscle [3]: 7.23E−03 mGy/MBq
Dose estimate, Osteogenic cells [3]: 8.89E−03 mGy/MBq
Dose estimate, Ovaries [3]: 1.13E−02 mGy/MBq
Dose estimate, Pancreas [3]: 2.01E−02 mGy/MBq
Dose estimate, Red marrow [3]: 6.48E−03 mGy/MBq
Dose estimate, Skin [3]: 5.60E−03 mGy/MBq
Dose estimate, Small intestine [3]: 3.52E−02 mGy/MBq
Dose estimate, Spleen [3]: 4.42E−02 mGy/MBq
Dose estimate, Stomach wall [3]: 1.95E−02 mGy/MBq
Dose estimate, Testes [3]: 8.14E−03 mGy/MBq
Dose estimate, Thymus [3]: 6.17E−03 mGy/MBq
Dose estimate, Thyroid [3]: 5.72E−03 mGy/MBq
Dose estimate, Total body [3]: 9.41E−03 mGy/MBq
Dose estimate, ULI wall [3]: 1.57E−02 mGy/MBq
Dose estimate, Urinary bladder wall [3]: 3.42E−01 mGy/MBq
Dose estimate, Uterus [3]: 1.57E−02 mGy/MBq
effective dose (ICRP 60) [3]: 3.00E−02 mSv/MBq
